Reference: the DeepSol protein solubility set

Assay: soluble on expression in E. coli; label from the status in PepcDB or PDB records

| Sequence | soluble on expression in E. coli |
| --- | --- |
| MPVEITVKELLEAGVHFGHERKRWNPKFARYIYAERNGIHIIDLQKTMEELERTFRFIEDLAMRGGTILFVGTKKQAQDIVRMEAERAGMPYVNQRWLGGMLTNFKTISQRVHRLEELEALFASPEIEERPKKEQVRLKHELERLQKYLSGFRLLKRLPDAIFVVDPTKEAIAVREARKLFIPVIALADTDSDPDLVDYIIPGNDDAIRSIQLILSRAVDLIIQARGGVVEPSPSYALVQEAEATETPEGESEVEA | soluble |
| MGSDKIHHHHHHMLSKDPRLYAFRDDLADKRFETEITAQRFIQGEKKRVNTAVAGLFKENNKKSEKQTECLLGEELLIFEQGKTMSWGQSLKDGYVGYIDTTILCTSAIKQTHIVSVPRTFQYLQADLRGPMEYPLSMGSKVSVVDETEVRGTIYAILESGKAIITRHLSPIGRVYEDYVTVAETLIHTPYLWGGVSGFGIDCSGLVQLSMMMTGKMVLRDTDMQQKTIGRVLTDSDKLKRGDLVFWNGHVAIMIDHENIIHANGYSMDVMIEPLEEAVTRIAKKYQYPIEKRRPIQEM | not soluble |
| MAHHHHHHMHHGATLHESLPCPLVSPIVSIDQCPFQPHERSETRPPHGNASLTFYTARSRCRVNFTPGPNVTYSAENKYSWNPYYRLETENKSQRLKAAQEECNSASVSGPCPIALTPRQGQCMARCSNTSSSTAQSPMHTFGCETPAIVSRCELSPQFSSVKSESGRALLTASHSIEENSITESTCVPQFDNMMHGLPMYASIHPVGEVWPLNEMNNEENVVFDAIKPTRNEQLQQQLYPTPLLVSQNQPTVSPYPYVMESRTIQPTYVSYNKARVPLLRFSKMLPPPVRCEAMSILENENPQLPLLMMYNPVLRWYERIKALLNEDYSAWPGGSCAVNISNNKSVRLELEEPCPTLPNKAEQTRENMSQWLKECNEWWDRQFFEKSRNGDKRRNGTGRGKWRQYSIQYPYNNHNNNNKAHKVNRGMQFDGEVAFLRRGGLQ | not soluble |
| MSRAVTRSRLNSTTDQFMAEKINESDILERLNQTHTVRGFFITTVDVLTEAIDALMQRIFRKDNFAVKSVVEPLLHDTGPLGDLTVRLKLLFGLGVIPDEVFHDIEHLIKLRNQLNHDATEYQFTDPQILAPIKALNLVKKMGMLHLNVVEPDDDIDLSFYHLQLQRQQQVIKSGLSLAIIQICNALNK | not soluble |
| MGSDKIHHHHHHMGACENRWTVAKALRFPGDALQTILVAAPRGDLSTFFSIECTKRVHTGRCVTTANALKVQAFHTTDVTEQVRATPGWQQQYRQMSPGYFSGELRCLGLDGVEVYEERLNTRVEQFFRAPSGSLAFCFDRSENSLYLLNEQSRNIWITPENYQEVAVVFDQAFLARHGLDPQRLEGLFMVPLGSGQNALFGSWLSATLTRLGEEGCPLQGQALAEQLLEDCLFILDNASQRLQGVALGRRDEERAIMHRVSEWAADCPEETLNLLELADVAGVSLRQLQQAFKAFTGMPPAHWLRLRRLNGARRDLLRGGGVTVAEVAMRWSFWHLGRFSESYRQLFKEFPSETLKRCRV | not soluble |
| MGSDKIHHHHHHMTWGFKNRLNTILPDGRAVMLAIDHGYFLGPIHGLEQPLETVKNLLPYTDSLFLTRGVLSSCIPENCSTPMVIRVSGGATVVGKDLANETIVTPVKEAVKQNAIGVGVSVFVGSDYETQTVTNLANVVSEAHDYCLPVLGITAVAKELQKREARFLALASRVCVEMGADIIKTYYCEGFEKITSTCPAPVVIAGGPKLDSIEDALNITYNALQEGAIGVDMGRNIWQSEHPAAMIQAIHGIVKNGLNVKEALQLYEDVKN | not soluble |
| GPGSMTTSDELPANGELDQPERIPDVVECERLKKAGNDLFAADRVAEALELYREAIKHAPLKPVKKPTQHRQDEVPPCGSEGTAQNSIGESSVVSEKSSAPGTEKSSKVGADDAAQDGDDDGIDYTLTSQVYCNAGLCLSKQGMPEDAITHLSEAIRHNKQYSKAYYRRAECYYVLGKWSNAYGDYEEYEKLGGTLDAGSQDRKRQAKAKVDEEMQKMLGELKNMGNRFLNYFGLSTDNFKFDKDPNTGGYSVRFEQ | not soluble |
| MPTLKVAYIPEHFSTPLFFAQQQGYYKAHDLSIEFVKVPEGSGRLINLLNSNEVDIAIGLTEAFIADIAKGNENIHVLDTYVKSPLLWAVSTGSNRDDVTDAKQLKRIGVSRIGSGSYVMSFVLAHQLGVPSFDQFQVLSNFKNLRDSVNLKDGVEGSDAFMWEYFTSKKYYDNHEIKQIDQIYTPWSSWVVATSSDSLQAKSDVIKNFIDAVNQGIQYYNEHVDEAIEYISSNLDYSAEDAKEWTKTVEFNSRIGKTPLDWDTIVVKTKDTLKLAGVLAESDDVILKRLNSNVKKTNL | soluble |
| MGSDKIHHHHHHMATSQWRLIASICFLALTGWSTKAVSAETDKPPFYQVQWQGKSAYLLGSIHIGRADFYPLPTQIETALGKAKGLVVEVDMNKADSNALLRQYGRADKTKGLDWQSRDKQTVESMTPYCAATANVCQSIQSFAPWLQATQVNLIRYNNLGYSTDYGVDMQLMARHAALPVYQLETAESQFQLLASFDSQAQWSMVREAISTSDADLLSLIAAWRSGNEAELDSIMQEQMGGEGDTEMLEKILWRRNHVMADGIIKLMGSTEITSPLFVVVGAGHVVGDKSVVQLLEQAGAKVSACWKQTCQ | not soluble |
| MYNISFTPDRPLTYHLEDDQSLARLSLVPGRGGLVTEWTVQGQPILYFDRERFQDPSLSVRGGIPILFPICGNLPQDQFNHAGKSYRLKQHGFARDLPWEVIGQQTQDNARLDLRLSHNDATLEAFPFAFELVFSYQLQGHSLRIEQRIANLGDQRMPFSLGFHPYFFCREKLGITLAIPANDYLDQKTGDCHGYDGQLNLTSPELDLAFTQISQPRAHFIDPDRNLKIEVSFSELYQTLVLWTVAGKDYLCLEPWSGPRNALNSGEQLAWVEPYSSRSAWVNFQVSTELEHHHHHH | soluble |
| MASVHGITVKNAQGEDTPLSNYQGKVLIIVNVASQCGLTNSNYNQFKELLDVYKKDGLEVLAFPCNQFGGQEPSCEIDIAAFVADKFKFEPTLFQKIDVNGDNTAPLYKFLKQEKGGFLVDAIKWNFTKFLVGRDGHVIKRFSPTTEPKDMKKDIEAALQAKL | not soluble |
| SSKEAFDELSVLSAIYCEQGEFEVLEESPEKGVVFRVHTLIDNNEKTPLDIIFHISPEYPNTPPDISISSNHLSRRQCHDLRRSLLDTAQSLPAEPMVHGLMLWLQENFSDLIKTSSCHSAEVRPETTEETWTALLHLDHMRSKAKYIKLIEKWTLELRLTGRLFTGKLILILLQGTKENIKQYIHLLKSVKVDVDSSGKRCKEKMMSVLCEIPKPEDKIMMTTFEVKDILSLDDLRREFDLIGLNELYHQFVSSLT | soluble |
| MGPHSMRYFETAVSRPGLEEPRYISVGYVDNKEFVRFDSDAENPRYEPRAPWMEQEGPEYWERETQKAKGQEQWFRVSLRNLLGYYNQSAGGSHTLQQMSGCDLGSDWRLLRGYLQFAYEGRDYIALNEDLKTWTAADMAAQITRRKWEQSGAAEHYKAYLEGECVEWLHRYLKNGNATLLRTDSPKAHVTHHPRSKGEVTLRCWALGFYPADITLTWQLNGEELTQDMELVETRPAGDGTFQKWASVVVPLGKEQNYTCRVYHEGLPEPLTLRWEPPPST | soluble |
| METDGDPTNEIPGSSMAFEVANHTVTEEPSPLDRILAEGRSFNGGNWSSDDLRSLLDGVMKYGTKIEAINYIHRNIVKKRSIEEIKAKIDEIREIIKEHKEIILPECYKNKWIEAGHHNITPPPFCQVDPNDDWSSIMGKIVDHHHGSINKTLPSLRDTYETLFENLALESKTHENAVVTKLLTAKATRTDSQNIRWPVIYRFMKACATLEEQMPALNELEAAVVSKVLDTIETEATTTPDTEKSILAGIFSECQQGNYRFCEQDYPPNVMAAVQLFVDPLRTRFHAIPEVASEVELINFTKDNQPSTSSN | not soluble |
| STYPPTPPNVTRLSDESVMLRWMVPRNDGLPIVIFKVQYRMVGKRKNWQTTNDNIPYGKPKWNSELGKSFTASVTDLKPQHTYRFRILAVYSNNDNKESNTSAKFYLQPGAALDPMPVPELLEIEEYSETAVVLHWSLASDADEHLITGYYAYYRPSSSAGEYFKATIEGAHARSFKIAPLETATMYEFKLQSFSAASASEFSALKQGRTQRPK | soluble |
